Laboratory results from patent EP4799645A2 (GAN & LEE PHARMACEUTICALS CO., LTD., dated 2026).
Numbered stars: 1 amine (or outer) side, 2 acyl side, 3 side chain; on linkers, the order of the positions; unused ones are H or OH. Side chains are listed from the residue outwards. Ends that are not written are not given here. * marks the point of attachment. C22 diacid = O=C(O)CCCCCCCCCCCCCCCCCCCCC(=O)*; γGlu = O=C(O)[C@H](CCC(=O)[*:2])N[*:1]; AEEA = NCCOCCOCC(=O)O

Biological target: albumin (HSA) (human, UniProt P02768 25-609)
Sequence (P02768 25-609 limits assumed): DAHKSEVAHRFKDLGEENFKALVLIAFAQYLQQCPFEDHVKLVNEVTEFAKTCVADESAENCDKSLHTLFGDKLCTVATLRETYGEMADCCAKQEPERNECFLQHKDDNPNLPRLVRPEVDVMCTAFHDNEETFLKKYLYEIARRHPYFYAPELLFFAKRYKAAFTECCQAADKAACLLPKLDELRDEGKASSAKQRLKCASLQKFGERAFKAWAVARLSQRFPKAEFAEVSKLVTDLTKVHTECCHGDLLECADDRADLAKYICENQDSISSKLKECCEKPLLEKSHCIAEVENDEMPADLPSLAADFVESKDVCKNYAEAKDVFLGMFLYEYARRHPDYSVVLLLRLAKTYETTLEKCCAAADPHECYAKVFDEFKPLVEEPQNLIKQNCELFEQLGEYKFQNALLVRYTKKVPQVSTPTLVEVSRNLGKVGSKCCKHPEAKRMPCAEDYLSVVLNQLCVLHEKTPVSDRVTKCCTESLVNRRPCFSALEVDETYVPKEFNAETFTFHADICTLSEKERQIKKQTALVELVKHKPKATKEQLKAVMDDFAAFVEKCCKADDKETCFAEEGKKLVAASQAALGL
Test: shift of receptor-binding IC50 between 0.005% and 2% HSA (indirect)

HGEGTFTSDVSSYLEGQAAK([AEEA-AEEA-γGlu-C22 diacid])EFIAWLVRGRG (also called Compound 10)
binding result: binds
